Here are results for 4 molecules from patent publication US20180125988A1, “TARGETED XTEN CONJUGATE COMPOSITIONS AND METHODS OF MAKING SAME” (AMUNIX OPERATING INC., priority 2014, published 2018).

Data set [1] is described as follows: Half-life of XTEN_AG864 in cynomolgus monkeys. In kind it is in vivo. An excerpt: The methods and materials utilized were adapted from those of Example 1, above.
Data set [2] in a line: Analytical size exclusion chromatography of XTEN fusion proteins. The data set is classed as physicochemical. The following applies: for RH (nm), hydrodynamic radius / Apparent MW (kDa): SEC; for Apparent MW (kDa): BioRad calibration standard; for Apparent Molecular Weight Factor: ratio of apparent molecular weight to calculated molecular weight.
The target of data set [3] is T1, human neutrophil elastase (Homo sapiens, UniProt P08246).
T1 construct: purchased R&D Systems
T1 sequence (P08246 30-267): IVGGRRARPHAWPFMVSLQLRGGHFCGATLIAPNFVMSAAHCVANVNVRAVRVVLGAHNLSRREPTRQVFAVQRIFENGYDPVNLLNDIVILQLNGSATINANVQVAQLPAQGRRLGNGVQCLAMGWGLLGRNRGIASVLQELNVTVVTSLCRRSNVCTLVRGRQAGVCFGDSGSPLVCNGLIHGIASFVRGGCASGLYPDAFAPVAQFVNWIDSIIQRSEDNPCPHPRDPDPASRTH
Description: Neutrophil elastase digestion of XTEN_AE864 (SDS-PAGE). The data set is classed as biochemical. The following applies: 10 μM XTEN, 37° C., 2 hours. On the procedure: It had been speculated that neutrophil elastase, a serine protease with broad substrate specificity, may be able to degrade XTEN. […] 10 μM of purified XTEN_AE864 was incubated with 1:1000 or 1:100 molar ratio (elastase:XTEN) of human neutrophil elastase (R&D Systems) at 37° C. for 2 hours. Samples before and after digestion were analyzed on SDS-PAGE gel followed with coomassie staining (FIG. 86).

The nature of data set [4]: Biodegradation of XTEN in rat plasma, rat kidney homogenate and PBS buffer (SDS-PAGE). In kind it is in vitro ADME. Conditions: 0.3 mg/ml. On the procedure: Purified XTEN_AE864 protein was incubated at a final concentration of 0.3 mg/ml in rat plasma (Bioreclamation IVT, Baltimore, Md.), rat kidney homogenate (Bioreclamation), or PBS buffer for up to 7 days at 37° C. Samples were withdrawn at time 0, 4 hours, 24 hours, and 7 days, were immediately frozen and stored at -80° C., then thawed right before analysis. XTEN was extracted from the samples by methanol precipitation. Briefly, methanol pre-chilled at −20° C. was added to the samples at a volume ratio of 2:1 and mixed by vortex. The mixture was kept at −20° C. for 30 min and then centrifuged at 14,000 rpm for 20 min at 8° C. The supernatant was subjected to centrifugal evaporation for 1-2 hours to take the sample to complete dryness, and was then resuspended in PBS buffer to the original volume before methanol extraction. The reconstituted samples were analyzed by SDS-PAGE with staining using Stains-all.

B1: XTEN_AG864: extended recombinant polypeptide of 864 amino acids, AG motif family (protein)
chain: GASPGTSSTGSPGSSPSASTGTGPGSSPSASTGTGPGTPGSGTASSSPGSSTPSGATGSPGSSPSASTGTGPGASPGTSSTGSPGTPGSGTASSSPGSSTPSGATGSPGTPGSGTASSSPGASPGTSSTGSPGASPGTSSTGSPGTPGSGTASSSPGSSTPSGATGSPGASPGTSSTGSPGTPGSGTASSSPGSSTPSGATGSPGSSPSASTGTGPGSSPSASTGTGPGSSTPSGATGSPGSSTPSGATGSPGASPGTSSTGSPGASPGTSSTGSPGASPGTSSTGSPGTPGSGTASSSPGASPGTSSTGSPGASPGTSSTGSPGASPGTSSTGSPGSSPSASTGTGPGTPGSGTASSSPGASPGTSSTGSPGASPGTSSTGSPGASPGTSSTGSPGSSTPSGATGSPGSSTPSGATGSPGASPGTSSTGSPGTPGSGTASSSPGSSTPSGATGSPGSSTPSGATGSPGSSTPSGATGSPGSSPSASTGTGPGASPGTSSTGSPGASPGTSSTGSPGTPGSGTASSSPGASPGTSSTGSPGASPGTSSTGSPGASPGTSSTGSPGASPGTSSTGSPGTPGSGTASSSPGSSTPSGATGSPGTPGSGTASSSPGSSTPSGATGSPGTPGSGTASSSPGSSTPSGATGSPGSSTPSGATGSPGSSPSASTGTGPGSSPSASTGTGPGASPGTSSTGSPGTPGSGTASSSPGSSTPSGATGSPGSSPSASTGTGPGSSPSASTGTGPGASPGTSSTGSPGASPGTSSTGSPGSSTPSGATGSPGSSPSASTGTGPGASPGTSSTGSPGSSPSASTGTGPGTPGSGTASSSPGSSTPSGATGSPGSSTPSGATGSPGASPGTSSTGSP
modifications: conjugated
notes: extended recombinant polypeptide of 864 amino acids, AG motif family
Take B1: the half-life entry in data set [1] is recorded as “exceeding 60 h”.

B2: AC398: fusion protein of FVII with AE288 (protein)
chain: AVFVTQEEAHGVLHRRRRANAFLEELRPGSLERECKEEQCSFEEAREIFKDAERTKLFWISYSDGDQCASSPCQNGGSCKDQLQSYICFCLPAFEGRNCETHKDDQLICVNENGGCEQYCSDHTGTKRSCRCHEGYSLLADGVSCTPTVEYPCGKIPILEKRNASKPQGRIVGGKVCPKGECPWQVLLLVNGAQLCGGTLINTIWVVSAAHCFDKIKNWRNLIAVLGEHDLSEHDGDEQSRRVAQVIIPSTYVPGTTNHDIALLRLHQPVVLTDHVVPLCLPERTFSERTLAFVRFSLVSGWGQLLDRGATALELMVLNVPRLMTQDCLQQSRKVGDSPNITEYMFCAGYSDGSKDSCKGDSGGPHATHYRGTWYLTGIVSWGQGCATVGHFGVYTRVSQYIEWLQKLMRSEPRPGVLLRAPFPGSPGTSESATPESGPGSEPATSGSETPGTSESATPESGPGSEPATSGSETPGTSESATPESGPGTSTEPSEGSAPGSPAGSPTSTEEGTSESATPESGPGSEPATSGSETPGTSESATPESGPGSPAGSPTSTEEGSPAGSPTSTEEGTSTEPSEGSAPGTSESATPESGPGTSESATPESGPGTSESATPESGPGSEPATSGSETPGSEPATSGSETPGSPAGSPTSTEEGTSTEPSEGSAPGTSTEPSEGSAPGSEPATSGSETPGTSESATPESGPGTSTEPSEGSAPGSSS
For the molecule B2, in data set [2], the “RH (nm), hydrodynamic radius” value was 8.2 nm; the “Apparent MW (kDa)” value was determined as 650 kDa; the “Apparent Molecular Weight Factor” value is 8.5.

B3: AC404: fusion protein of FVII with AE864 (protein)
chain: AVFVTQEEAHGVLHRRRRANAFLEELRPGSLERECKEEQCSFEEAREIFKDAERTKLFWISYSDGDQCASSPCQNGGSCKDQLQSYICFCLPAFEGRNCETHKDDQLICVNENGGCEQYCSDHTGTKRSCRCHEGYSLLADGVSCTPTVEYPCGKIPILEKRNASKPQGRIVGGKVCPKGECPWQVLLLVNGAQLCGGTLINTIWVVSAAHCFDKIKNWRNLIAVLGEHDLSEHDGDEQSRRVAQVIIPSTYVPGTTNHDIALLRLHQPVVLTDHVVPLCLPERTFSERTLAFVRFSLVSGWGQLLDRGATALELMVLNVPRLMTQDCLQQSRKVGDSPNITEYMFCAGYSDGSKDSCKGDSGGPHATHYRGTWYLTGIVSWGQGCATVGHFGVYTRVSQYIEWLQKLMRSEPRPGVLLRAPFPGSPGSPAGSPTSTEEGTSESATPESGPGTSTEPSEGSAPGSPAGSPTSTEEGTSTEPSEGSAPGTSTEPSEGSAPGTSESATPESGPGSEPATSGSETPGSEPATSGSETPGSPAGSPTSTEEGTSESATPESGPGTSTEPSEGSAPGTSTEPSEGSAPGSPAGSPTSTEEGTSTEPSEGSAPGTSTEPSEGSAPGTSESATPESGPGTSTEPSEGSAPGTSESATPESGPGSEPATSGSETPGTSTEPSEGSAPGTSTEPSEGSAPGTSESATPESGPGTSESATPESGPGSPAGSPTSTEEGTSESATPESGPGSEPATSGSETPGTSESATPESGPGTSTEPSEGSAPGTSTEPSEGSAPGTSTEPSEGSAPGTSTEPSEGSAPGTSTEPSEGSAPGTSTEPSEGSAPGSPAGSPTSTEEGTSTEPSEGSAPGTSESATPESGPGSEPATSGSETPGTSESATPESGPGSEPATSGSETPGTSESATPESGPGTSTEPSEGSAPGTSESATPESGPGSPAGSPTSTEEGSPAGSPTSTEEGSPAGSPTSTEEGTSESATPESGPGTSTEPSEGSAPGTSESATPESGPGSEPATSGSETPGTSESATPESGPGSEPATSGSETPGTSESATPESGPGTSTEPSEGSAPGSPAGSPTSTEEGTSESATPESGPGSEPATSGSETPGTSESATPESGPGSPAGSPTSTEEGSPAGSPTSTEEGTSTEPSEGSAPGTSESATPESGPGTSESATPESGPGTSESATPESGPGSEPATSGSETPGSEPATSGSETPGSPAGSPTSTEEGTSTEPSEGSAPGTSTEPSEGSAPGSEPATSGSETPGTSESATPESGPGTSTEPSEGSAPGSSS
On to B3, for which, in data set [2], the “RH (nm), hydrodynamic radius” value is given as 10.1 nm; the “Apparent MW (kDa)” value was found to be 1900 kDa; the “Apparent Molecular Weight Factor” value is reported as 14.7.

B4: XTEN_AE864: extended recombinant polypeptide of 864 amino acids, AE motif family (protein)
chain: GSPAGSPTSTEEGTSESATPESGPGTSTEPSEGSAPGSPAGSPTSTEEGTSTEPSEGSAPGTSTEPSEGSAPGTSESATPESGPGSEPATSGSETPGSEPATSGSETPGSPAGSPTSTEEGTSESATPESGPGTSTEPSEGSAPGTSTEPSEGSAPGSPAGSPTSTEEGTSTEPSEGSAPGTSTEPSEGSAPGTSESATPESGPGTSTEPSEGSAPGTSESATPESGPGSEPATSGSETPGTSTEPSEGSAPGTSTEPSEGSAPGTSESATPESGPGTSESATPESGPGSPAGSPTSTEEGTSESATPESGPGSEPATSGSETPGTSESATPESGPGTSTEPSEGSAPGTSTEPSEGSAPGTSTEPSEGSAPGTSTEPSEGSAPGTSTEPSEGSAPGTSTEPSEGSAPGSPAGSPTSTEEGTSTEPSEGSAPGTSESATPESGPGSEPATSGSETPGTSESATPESGPGSEPATSGSETPGTSESATPESGPGTSTEPSEGSAPGTSESATPESGPGSPAGSPTSTEEGSPAGSPTSTEEGSPAGSPTSTEEGTSESATPESGPGTSTEPSEGSAPGTSESATPESGPGSEPATSGSETPGTSESATPESGPGSEPATSGSETPGTSESATPESGPGTSTEPSEGSAPGSPAGSPTSTEEGTSESATPESGPGSEPATSGSETPGTSESATPESGPGSPAGSPTSTEEGSPAGSPTSTEEGTSTEPSEGSAPGTSESATPESGPGTSESATPESGPGTSESATPESGPGSEPATSGSETPGSEPATSGSETPGSPAGSPTSTEEGTSTEPSEGSAPGTSTEPSEGSAPGSEPATSGSETPGTSESATPESGPGTSTEPSEGSAP
modifications: conjugated
notes: extended recombinant polypeptide of 864 amino acids, AE motif family
For B4, the “degradation by neutrophil elastase” value in data set [3] (1:100 molar ratio (elastase:XTEN)) is “completely digested”; in data set [3] (1:1000 molar ratio (elastase:XTEN)), “Partial degradation”. Further, the “degradation in PBS buffer” value in data set [4] (PBS buffer, 7 day incubation at 37° C.) is recorded as “only minor signs of degradation”. Moreover, the “degradation in rat kidney homogenate” value in data set [4] (rat kidney homogenate, 37° C., by the 24 hour interval) was “rapidly degraded”. Also, the “degradation in rat plasma” value in data set [4] (rat plasma, 7 day incubation at 37° C.) is “only minor signs of degradation”.
